Test results reported in patent US20260242478A1 (published 2026).
Where no end group is shown, it is not given here.

B1: Phage-373 (peptide)
peptide: MDWCPRILWSDCFN
B2: Phage-374 (peptide)
peptide: MAWCPLDLWDKCFY
B3: Phage-309 (peptide)
peptide: MDWCPMFLWHECFN
notes: tested as crude phage supernatant
B4: Phage-285 (peptide)
peptide: MDWCPRDLWAMCFA
modifications: cysteine pairing not given here; also: displayed on phage as fusion to pIII
notes: as for B3
B5: Phage-368 (peptide)
peptide: MSWCPPYLWTVCYN
B6: Phage-367 (peptide)
peptide: MDWCPSFLWYECFN
B7: Phage-412 (peptide)
peptide: QHWCPRDMWNDCYA
B8: Phage-308 (peptide)
peptide: MDWCPKSLWAECFN
notes: as for B3
B9: Phage-370 (peptide)
peptide: MTWCPAYLWHECFN
B10: Phage-281 (peptide)
peptide: MDWCPRSLWFLCFN
notes: as for B3
B11: Phage-307 (peptide)
peptide: MDWCPRYLWPVCFH
notes: as for B3
B12: Phage-413 (peptide)
peptide: MDWCPSDMWSNCFN
B13: Phage-280 (peptide)
peptide: MDWCPRYLWDYCFA
notes: as for B3
B14: Phage-294 (peptide)
peptide: MDWCPRSLWDYCFA
notes: as for B3
B15: Phage-372 (peptide)
peptide: MDWCPRYLWVDCFA
B16: Phage-369 (peptide)
peptide: MHWCPRDLWYECFA
B17: Phage-376 (peptide)
peptide: MDWCPRHLWTYCFH
B18: Phage-414 (peptide)
peptide: LYWCPRDMWAYCYS
B19: Phage-365 (peptide)
peptide: MDWCPSYLWPVCFN
B20: Phage-379 (peptide)
peptide: MDWCPRNLWAECFS
B21: Phage-415 (peptide)
peptide: MDWCPMYMWHKCFH
B22: Phage-282 (peptide)
peptide: MDWCPRDLWFACFA
notes: as for B3
B23: Phage-378 (peptide)
peptide: MHWCPLHLWNECFA
B24: Phage-299 (peptide)
peptide: MDWCPIYLWAECFN
notes: as for B3
B25: Phage-283 (peptide)
peptide: MDWCPRHLWNECFN
notes: as for B3
B26: Phage-293 (peptide)
peptide: MDWCPRHLWFECFN
notes: as for B3
B27: Phage-306 (peptide)
peptide: MDWCPRHLWNECFA
notes: as for B3
B28: Phage-300 (peptide)
peptide: MDWCPRHLWFECFF
notes: as for B3
B29: Phage-290 (peptide)
peptide: MDWCPRDLWSVCFS
notes: as for B3
B30: Phage-301 (peptide)
peptide: MDWCPRYLWHECFF
notes: as for B3
B31: Phage-364 (peptide)
peptide: MDWCPRSLWAQCFY
B32: Phage-366 (peptide)
peptide: MHWCPLYLWDECFY
B33: Phage-380 (peptide)
peptide: MDYCPSYLWHECFA
B34: Phage-291 (peptide)
peptide: MDWCPRYLWHVCFY
notes: as for B3
B35: Phage-302 (peptide)
peptide: MDWCPRYLWHVCFD
notes: as for B3
B36: Phage-286 (peptide)
peptide: MERCPRYLWHMCYS
notes: as for B3
B37: Phage-304 (peptide)
peptide: MDWCPKFLWDECFA
notes: as for B3
B38: Phage-377 (peptide)
peptide: MDWCPFDLWLECFN
B39: Phage-288 (peptide)
peptide: MDWCPIALWDFCFA
notes: as for B3
B40: Phage-375 (peptide)
peptide: MNWCPRALWHECFL
B41: Phage-411 (peptide)
peptide: MSWCPRFMWHECFN
B42: Phage-410 (peptide)
peptide: IDWCPRYMWHECFF
B43: Phage-303 (peptide)
peptide: MDWCPRYLWTECFS
notes: as for B3
B44: Phage-305 (peptide)
peptide: MDWCPRDLWTECFS
notes: as for B3
B45: Phage-292 (peptide)
peptide: MDWCPRALWDHCFF
notes: as for B3

Experiments:
[1] = target: T1, Anti-CD28 scFv (VH - linker 1 - VL) (biotinylated (site not stated)); experiment: phage ELISA; biotinylated anti-CD28 scFv on neutravidin plate, clonal phage supernatant, anti-M13-HRP;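 note: before the phage were added, wells were pre-incubated with soluble CD28 protein in blocking buffer, or with blocking buffer alone, and were not washed in between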
T1 construct: Biotinylated scFv captured on neutravidin coated plates in the panning ELISA
T1 sequence (scFv, as listed by the source): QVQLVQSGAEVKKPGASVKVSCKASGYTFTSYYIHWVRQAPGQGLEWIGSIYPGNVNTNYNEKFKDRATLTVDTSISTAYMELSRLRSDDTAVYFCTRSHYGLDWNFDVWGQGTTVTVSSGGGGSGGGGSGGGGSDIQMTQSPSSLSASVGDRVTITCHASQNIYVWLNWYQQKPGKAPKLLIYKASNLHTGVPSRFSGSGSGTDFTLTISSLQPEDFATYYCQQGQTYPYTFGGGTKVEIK

[2] = target: T1, Anti-CD28 scFv (VH - linker 1 - VL); experiment: phage ELISA as above, wells pre-incubated with soluble CD28 (competitor);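 note: ELISA of crude clonal phage supernatants added to wells pre-treated with soluble CD28 in blocking buffer, bound phage read out with HRP-conjugated anti-M13 antibody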
Experimental: (§1) Clonal phage were harvested as crude supernatants and screened via standard enzyme linked immunosorbent assays (ELISAs). […] Prior to the addition of clonal phage, wells were incubated with blocking buffer and CD28 soluble protein or blocking buffer alone. Without washing or aspirating, clonal phage supernatants were then added to the wells and incubated for a short time. Wells were then washed followed by detection of bound phage using a horse radish peroxidase conjugated anti-M13 antibody.

[3] = target: T2, Anti-CD28 scFv (VH - linker 1 - VL) (biotinylated (site not stated)); experiment: phage ELISA; biotinylated anti-CD28 scFv on neutravidin plate, clonal phage supernatant, anti-M13-HRP detection;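 note: before phage addition, wells were pretreated with soluble CD28 protein in blocking buffer, or with blocking buffer only as the comparison, then phage were added without washing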
T2 construct: Biotinylated scFv captured on neutravidin coated plates in the panning ELISA
T2 sequence (scFv, as listed by the source): as above

[4] = target: T2, Anti-CD28 scFv (VH - linker 1 - VL); experiment: phage ELISA; biotinylated anti-CD28 scFv on neutravidin plate, wells pre-incubated with soluble CD28 (competitor), anti-M13-HRP detection;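 note: bound clonal phage detected by peroxidase-labelled anti-M13 antibody, compared against wells given blocking buffer alone without soluble CD28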
Experimental: as §1

[5] = target: T3, Anti-CD28 scFv (VH - linker 1 - VL) (biotinylated (site not stated)); experiment: phage ELISA: biotinylated anti-CD28 scFv on neutravidin plate, clonal phage supernatant, anti-M13-HRP detection;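 note: competition format: before phage supernatant was added, wells were preincubated with soluble CD28 protein or with blocking buffer only, and phage were added without an intervening wash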
T3 construct: Captured as biotinylated scFv on neutravidin plates in the panning ELISA
T3 sequence (scFv, as listed by the source): as above

[6] = target: T3, Anti-CD28 scFv (VH - linker 1 - VL); experiment: phage ELISA as above, wells pre-incubated with soluble CD28 (competitor);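 note: ELISA of crude clonal phage supernatants added to wells pre-treated with soluble CD28 in blocking buffer, bound phage read out with HRP-conjugated anti-M13 antibody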
Experimental: as §1

| Binder | CD28 scFv signal [1] | CD28 scFv signal in presence of CD28 [2] | CD28 scFv signal [3] | CD28 scFv signal in presence of CD28 [4] | further results |
| --- | --- | --- | --- | --- | --- |
| B1 | 0.847 | 0.113 | – | – | – |
| B2 | 0.77 | 0.141 | – | – | – |
| B3 | – | – | 2.38 | 0.591 | – |
| B4 | – | – | 2.63 | 0.889 | – |
| B5 | 1.1 | 0.326 | – | – | – |
| B6 | 1.13 | 0.104 | – | – | – |
| B7 | – | – | – | – | CD28 scFv signal [5]: 1.08; CD28 scFv signal in presence of CD28 [6]: 0.149 |
| B8 | – | – | 2.38 | 0.162 | – |
| B9 | 0.985 | 0.139 | – | – | – |
| B10 | – | – | 2.71 | 1.77 | – |
| B11 | – | – | 2.39 | 0.602 | – |
| B12 | – | – | – | – | CD28 scFv signal [5]: 1.07; CD28 scFv signal in presence of CD28 [6]: 0.121 |
| B13 | – | – | 2.71 | 0.382 | – |
| B14 | – | – | 2.49 | 0.235 | – |
| B15 | 0.917 | 0.218 | – | – | – |
| B16 | 0.995 | 0.108 | – | – | – |
| B17 | 0.757 | 0.207 | – | – | – |
| B18 | – | – | – | – | CD28 scFv signal [5]: 1.02; CD28 scFv signal in presence of CD28 [6]: 0.157 |
| B19 | 1.18 | 0.131 | – | – | – |
| B20 | 0.538 | 0.08 | – | – | – |
| B21 | – | – | – | – | CD28 scFv signal [5]: 0.987; CD28 scFv signal in presence of CD28 [6]: 0.168 |
| B22 | – | – | 2.66 | 0.794 | – |
| B23 | 0.575 | 0.083 | – | – | – |

| Binder | CD28 scFv signal [1] | CD28 scFv signal in presence of CD28 [2] | CD28 scFv signal [3] | CD28 scFv signal in presence of CD28 [4] | further results |
| --- | --- | --- | --- | --- | --- |
| B24 | – | – | 2.45 | 0.307 | – |
| B25 | – | – | 2.65 | 0.393 | – |
| B26 | – | – | 2.49 | 0.171 | – |
| B27 | – | – | 2.39 | 0.17 | – |
| B28 | – | – | 2.45 | 0.479 | – |
| B29 | – | – | 2.5 | 0.116 | – |
| B30 | – | – | 2.45 | 0.682 | – |
| B31 | 1.39 | 0.14 | – | – | – |
| B32 | 1.16 | 0.376 | – | – | – |
| B33 | 0.47 | 0.09 | – | – | – |
| B34 | – | – | 2.5 | 1.14 | – |
| B35 | – | – | 2.44 | 0.31 | – |
| B36 | – | – | 2.59 | 0.84 | – |
| B37 | – | – | 2.41 | 0.376 | – |
| B38 | 0.65 | 0.12 | – | – | – |
| B39 | – | – | 2.52 | 0.492 | – |
| B40 | 0.759 | 0.107 | – | – | – |
| B41 | – | – | – | – | CD28 scFv signal [5]: 1.11; CD28 scFv signal in presence of CD28 [6]: 0.246 |
| B42 | – | – | – | – | CD28 scFv signal [5]: 1.18; CD28 scFv signal in presence of CD28 [6]: 0.164 |
| B43 | – | – | 2.42 | 0.329 | – |
| B44 | – | – | 2.4 | 0.174 | – |
| B45 | – | – | 2.49 | 0.394 | – |
